These results are taken from the supplement of paper PMC7877785.

± gives the uncertainty stated by the source.

The data set is described as follows: self-splicing fitness, log relative to wild type (ln ratio); higher = more splicing; Tetrahymena group I intron in knt gene, E. coli kanamycin selection, DiMSum; sequences stand for … in CUCUCU…GGAGGGAAAAGUUAUCAGGCAUGCACCUGGUAGCUAGUCUUUAAACCAAUAGAUUGCAUCGGUUUAAAAGGCAAGACCGUCAAAUUGCGGGAAAGGGGUCAACAGCCGUUCAGUACCAAGUCUCAGGGGAAACUUUGAGAUGGCCUUGCAAAGGGUAUGGUAAUAAGCUGACGGACAUGGUCCUAACCACGCAGCCAAGUCCUAAGUCAACAGAUCUUCUGUUGAUAUGGAUGCAGUUCACAGACUAAAUGUCGGUCGGGGAAGAUGUAUUCUUCUCAUAAGAUAUAGUCGGACCUCUCCUUAAUGGGAGCUAGCGGAUGAAGUGAUGCAACACUGGAGCCGCUGGGAACUAAUUUGUAUGCGAAAGUAUAUUGAUUAGUUUUGGAGUACUCGUGGUCG
The method, boiled down: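 Library with all eight P1ex-region intron nucleotides randomised, intron inside the knt kanamycin-resistance gene on pET-22b(+), in E. coli BL21(DE3). Cells grew overnight at 37°C or 30°C on LB agar with or without 25 μg/mL kanamycin (plus 100 μg/mL carbenicillin, 50 μM IPTG, 0.2% rhamnose), in six replicate transformations. Pooled colonies were amplicon-sequenced on Illumina HiSeq 2500. DiMSum fitness is the error-weighted combination of wild-type-normalised replicate fold changes, kanamycin versus none.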

With GCCGAGCAAUAUUACGUAGU, the “self-splicing fitness (ln)” value by setting is: (30 °C) -1.34 ± 0.14; (37 °C) -0.503 ± 0.16.
In the case of GCCGAGCAAUAUUACGUCUU, the “self-splicing fitness (ln)” value runs as follows: (30 °C) -2.71 ± 0.16; (37 °C) -1.82 ± 0.14.
For GCCGAGCAAUAUUACGUUCA the same measures were -1.03 ± 0.11 and -0.854 ± 0.14.
The corresponding values for GCCUAGCAAUAUUACGAACU are -1.67 ± 0.23 and -0.772 ± 0.23.
Regarding GCCUAGCAAUAUUACGAGGG, the “self-splicing fitness (ln)” value runs as follows: (30 °C) -3.68 ± 0.21; (37 °C) -1.6 ± 0.15.
The corresponding values for GCCUAGCAAUAUUACGCCUC are 0.149 ± 0.18 and 0.175 ± 0.41.
Turning to GCCUAGCAAUAUUACGCUAA, the “self-splicing fitness (ln)” value is -1.28 ± 0.11 (30 °C) and 0.00419 ± 0.12 (37 °C).
On to GCCUAGCAAUAUUACGGAGC, for which the “self-splicing fitness (ln)” value (30 °C) is -2.44 ± 0.13 and the “self-splicing fitness (ln)” value (37 °C) was -1.43 ± 0.1.
GCCUAGCAAUAUUACGGCAG: the “self-splicing fitness (ln)” value reads like this: (30 °C) -2.72 ± 0.19; (37 °C) -2.18 ± 0.42.
Consider GCCUAGCAAUAUUACGGGAC, for which the “self-splicing fitness (ln)” value runs as follows: (30 °C) -2.4 ± 0.13; (37 °C) -0.0283 ± 0.1.
GCCUAGCAAUAUUACGGGUG: the “self-splicing fitness (ln)” value is -1.02 ± 0.056 (30 °C) and -0.101 ± 0.067 (37 °C).
The corresponding values for GCCUAGCAAUAUUACGGUAA are -0.151 ± 0.079 and -0.546 ± 0.075.
The corresponding values for GCCUAGCAAUAUUACGGUGG are -4.34 ± 0.27 and -2.86 ± 0.22.
The corresponding values for GCCUAGCAAUAUUACGUAAG are -1.83 ± 0.088 and -0.757 ± 0.11.
In the case of GCCUAGCAAUAUUACGUCAA, the “self-splicing fitness (ln)” value runs as follows: (30 °C) -2.16 ± 0.22; (37 °C) -1.8 ± 0.18.
For GCCUAGCAAUAUUACGUGCG the same measures were -1.6 ± 0.075 and -0.358 ± 0.078.
For GCCUAGCAAUAUUACGUUGU the same measures were -0.142 ± 0.04 and 0.252 ± 0.055.
With GCGAAGCAAUAUUACGACAU, the “self-splicing fitness (ln)” value was -0.422 ± 0.012 (30 °C) and 0.0421 ± 0.032 (37 °C).
As for GCGAAGCAAUAUUACGAUAC, the “self-splicing fitness (ln)” value is, setting by setting: (30 °C) -1.99 ± 0.17; (37 °C) -0.487 ± 0.15.
For GCGAAGCAAUAUUACGCUUC the same measures were -4.53 ± 0.46 and -2.58 ± 0.29.
The corresponding values for GCGAAGCAAUAUUACGGCCG are -1.71 ± 0.29 and -1.34 ± 0.37.
For GCGAAGCAAUAUUACGGGAC the same measures were -1.66 ± 0.16 and -2.2 ± 0.22.
For GCGAAGCAAUAUUACGGGUG, the “self-splicing fitness (ln)” value reads like this: (30 °C) -1.77 ± 0.085; (37 °C) -1.88 ± 0.1.
For GCGAAGCAAUAUUACGUACA the same measures were -1.9 ± 0.19 and -1.29 ± 0.14.
Consider GCGAAGCAAUAUUACGUAUU, for which the “self-splicing fitness (ln)” value reads like this: (30 °C) -3.7 ± 0.15; (37 °C) -0.392 ± 0.093.
For GCGAAGCAAUAUUACGUCUG the same measures were -1.68 ± 0.088 and -1.81 ± 0.15.
The corresponding values for GCGAAGCAAUAUUACGUGAC are -1.51 ± 0.28 and -2.05 ± 0.29.
For GCGAAGCAAUAUUACGUGGU the same measures were -3.09 ± 0.17 and -2.92 ± 0.2.
Turning to GCGCAGCAAUAUUACGACAU, the “self-splicing fitness (ln)” value (30 °C) was -0.277 ± 0.012 and the “self-splicing fitness (ln)” value (37 °C) worked out at 0.253 ± 0.032.
The corresponding values for GCGCAGCAAUAUUACGACGA are 0.345 ± 0.15 and -0.247 ± 0.17.
For GCGCAGCAAUAUUACGACGC the same measures were -2.89 ± 0.33 and -1.81 ± 0.35.
The corresponding values for GCGCAGCAAUAUUACGAGAA are -2.67 ± 0.21 and -0.894 ± 0.21.
With GCGCAGCAAUAUUACGAGCG, the “self-splicing fitness (ln)” value reads like this: (30 °C) -2.39 ± 0.15; (37 °C) -2.26 ± 0.24.
GCGCAGCAAUAUUACGAGCU: the “self-splicing fitness (ln)” value was -3.19 ± 0.28 (30 °C) and -1.74 ± 0.16 (37 °C).
For GCGCAGCAAUAUUACGAUCU the same measures were -0.609 ± 0.055 and -0.141 ± 0.067.
For GCGCAGCAAUAUUACGAUGU the same measures were -1.21 ± 0.077 and -0.279 ± 0.099.
For the sequence GCGCAGCAAUAUUACGCAAU, the “self-splicing fitness (ln)” value is -1.56 ± 0.09 (30 °C) and -0.27 ± 0.1 (37 °C).
